Source: the supplement of paper PMC12042874
± gives the uncertainty stated by the source.

Assay: amyloid nucleation score (Sup35N fusion, yeast selection) (log enrichment); library NNK1; higher = more nucleation; inactive = no reads after selection
Method in brief: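 Nucleation score is defined as the DiMSum log enrichment of output over input reads, with centring on the mode score of non-aggregating sequences. A minimum of 100 input reads was required for each sequence. Reads came from Illumina sequencing of plasmid inserts from psi-negative yeast expressing Sup35N fused to peptides of 20 random codons, induced with 100 μM copper sulfate for 24 hours and grown 7 days at 30°C on medium lacking adenine and uracil.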

Substance	amyloid nucleation score
NYRRQLSFLRLSGQDMLEGK	0.184 ± 0.53
NYSYSFIPRSKVNGYEYGGA	-0.387 ± 0.32
NYTNTMWSSFLDYVVD	0.272 ± 0.88
NYVYR	-0.742 ± 1.2
NYVYSSVVGLLIW	-0.077 ± 0.19
NYYCRDVI	0.392 ± 0.3
NYYLECWYSCMGNTETSSKG	0.212 ± 0.53
NYYLVCCCKREQRLCTVGIT	6.831 ± 0.064
PAFFCFWNNLSCVSTWSYLV	2.44 ± 0.088
PALLEIQWSSCGV	-0.02 ± 0.72
PALNILNHYLLCKDPLFVRV	0.348 ± 0.37
PAMSVGQRFYGEQHSCGLSA	-0.583 ± 0.43
PCFRTYDCAISNLAVASRCR	1.03 ± 0.37
PCSVVV	-0.246 ± 0.32
PCWLQMSCR	-0.148 ± 0.79
PCYWQPPRRVAVATLSAAAL	-0.312 ± 0.49
PDFIHFY	0.182 ± 0.38
PFFTIKWCNFSSFIGYEPLL	-0.161 ± 0.31
PFGDSAPKTIRIMAVLIFTV	-0.237 ± 1.9
PFTRVGLDMYLDDSVKKGWD	-0.528 ± 0.36
PFVGTIFVSGSGTSMENGIC	-0.601 ± 0.47
PGEVRW	-0.385 ± 1.9
PGKSLIIHMCFSMSKTTENG	2.52 ± 0.08
PGYSVPFSCGDQVPQQLPIR	-0.538 ± 2.1
PHMMELSVDTKGNVLKVGSH	0.055 ± 0.52

Substance	amyloid nucleation score
PHPVVLASLSIDWVPRCSES	-0.179 ± 1
PIHDLRKLIYVTPEFYWGFY	0.561 ± 0.48
PIIVDRCCFDYIRRVNVLYN	0.677 ± 0.48
PILKQNHWRDFGNCLAKRRE	-0.281 ± 0.82
PINGEGSVSTLNDMVLSRSI	1.26 ± 0.81
PIRVM	-0.495 ± 0.43
PISCFTDHMQMFMRSNGRGL	1.16 ± 0.29
PKFAHILTHGVSHMQWTVVK	0.06 ± 0.35
PKKLRMYLPMHLSTPKRRLV	0.565 ± 0.58
PKRPMWLIQET	-0.571 ± 0.61
PKVFIEKAAIYIFAL	0.029 ± 0.51
PLIITTMFGASVRESFHVVL	1.21 ± 0.4
PLSILRKMAGVVSGCTAPTS	0.663 ± 0.7
PLTNRNIKIHYDLLSDDKMV	0.602 ± 0.26
PLVVGRVCEGYRRWCWFGRR	-0.369 ± 0.38
PMLVQLLEASWVKPVLDCIY	inactive
PMMMKIVKHDIVFSLEFHLI	inactive
PMPSLECNGVHFIKGIRLTL	0.754 ± 0.99
PNCDAYWVNWFKLRCLSHLF	-0.489 ± 1.7
PNLPGSKDNLTDRF	0.488 ± 1.2
PNSERREAMVIMFRW	0.633 ± 0.35
PNTSEWTDWCRVLVEWGQGS	0.394 ± 0.18
PNTYGGIMECYV	-0.233 ± 0.42
PPRYLMRDLTHWSPYR	1.34 ± 0.7
PQKLQGQIGCR	-0.549 ± 0.47

Substance	amyloid nucleation score
PQLTRSGQ	-0.14 ± 0.28
PQRQFDLIVD	0.563 ± 0.81
PQSFWNARCPCPLNRLNGVW	-0.474 ± 0.34
PREVVAQKHCSLLQFDLLYS	-0.556 ± 0.48
PRFKTMVVTHFLSFNFYGWN	-0.505 ± 0.39
PRGVFYCLCYLVTCLAEFYE	-0.311 ± 0.36
PRHFVKVIEAPASLLIVYHG	-1.02 ± 1.8
PRIRSPEMDVMSPPNFLWGL	0.213 ± 0.48
PRKACTIGWLGSINLERGEE	-0.681 ± 0.74
PRLMLYCSLYDIESFIIGRC	inactive
PRTTMMAINQVLTGTLEASW	-1.01 ± 0.95
PSALFFSVTLKVHINLAISS	0.431 ± 0.53
PSFHICL	-0.489 ± 0.41
PSGVCSIVVFKCLRRVMSSL	0.353 ± 0.35
PSGWTFSRGLSCDNVSRLSS	1.05 ± 0.61
PSMEWWGL	0.158 ± 0.88
PSSYF	0.45 ± 0.47
PSTDLWWLGNTLSIGNRIVY	-0.879 ± 0.69
PSYLCYVIPPPCINLVPMYP	-0.177 ± 0.23
PTFAADSEGHS	0.085 ± 0.63
PTTFVENIAWRRGSTSCLCG	inactive
PVCGFRRWKCLPN	0.318 ± 0.66
PVFGGNGWLGYGWNWRSHLG	0.383 ± 0.49
PVMFVDSMSVWVLLVCYRR	0.19 ± 0.74
PVQDGSLGCQSHYCSRYCYV	-0.129 ± 0.46

Substance	amyloid nucleation score
PVSDLVIFLQLRFRNTCMLP	0.952 ± 0.92
PWQRSSCLGTLVLVTNYDRY	0.058 ± 0.44
PWTSHVNFRSSGYLSNCLNF	-0.145 ± 0.64
PWYKSLSRPSGGKTVLLRNM	-0.113 ± 0.43
PYDYRI	-0.503 ± 0.46
PYVGPLMNFYHSMGMWWMYN	inactive
QALYSCDDYRGYRTSQCPRS	-1.13 ± 1.9
QARSGPTPLTTWRTRQVTLG	-0.178 ± 0.51
QCDVS	inactive
QCGEICLCRSAGVVHSPRGW	-0.513 ± 0.55
QCIPLLAGSYCAQML	0.914 ± 0.14
QCVFYMWVSFEELK	0.418 ± 0.97
QDLICVFMGCVIS	7.942 ± 0.044
QFESIGCVEWYMFGIREVFS	-0.318 ± 0.47
QFRICVAPEFFGRKSLRASD	0.445 ± 1.2
QFSLPLCGYKRRHNGSFAEM	-1.14 ± 2.1
QFYHLYCHKIYCFRGEFRRR	1.83 ± 0.46
QGAGAGKITVGTVGVGGTEL	inactive
QGIAACSAGSLDYVYGRWKG	3.91 ± 0.09
QGISPLRWAVLYRFMYGCVR	-0.209 ± 0.57
QGRGMDNVIYVEVRMRDCRR	2.04 ± 0.24
QGSCCD	-0.815 ± 0.86
QGSDSSNEATTAPLCRLRIW	1.11 ± 0.94
QIAVWPSYFSGDIGDMSRKG	0.017 ± 0.56
QIIPTRFGWFSNRGCVLGSY	1.08 ± 0.38

Substance	amyloid nucleation score
QIRRGCRYFW	-0.856 ± 1.1
QIVCGSMWMLDKI	-0.297 ± 0.49
QIYASKWPYEIEFKNFMRVA	0.247 ± 0.42
QIYVIICLMFSDIGMHIAYV	inactive
QKSIDLYFEKRHTISTQNR	-0.455 ± 0.56
QLEFVWLILTYHEGHYRIGK	inactive
QLPCDRISSDALYRMWGLV	-1.41 ± 0.91
QLQTSQRV	inactive
QLRYKIVMHRQSEHKPSLLN	-0.855 ± 1.5
QLSRSVWRRMRRQQKHPLTG	1.62 ± 0.81
QLVGFVVPRRSSPGVHTGEC	1.21 ± 0.53
QMDMCDYERFYLA	inactive
QMDVRDFYSRVSGGGGYQMH	-0.074 ± 0.61
QMLIAGGAKTGTPLFPGASS	0.358 ± 0.5
QNDLERWAEGQASKMLG	0.433 ± 0.4
QNFNFSWVYTFYTRICTLYF	5.872 ± 0.047
QNNCSPARPTAHNYVGGHAT	0.656 ± 1
QNYSLNWSITGLVRLLSRIC	-0.73 ± 0.55
QQRLWRNAWTDMARKVSTSR	0.452 ± 1.2
QRARIINRKHV	0.214 ± 0.74
QRFHFLNRL	-0.411 ± 1.1
QRMACWYLDKLESLSKLACM	0.612 ± 0.82
QRVIAGPPNRAGKAYQALSR	0.107 ± 0.53
QSISYR	-0.956 ± 0.7
QSLSLVVPDIVMIKTPN	inactive

Substance	amyloid nucleation score
QSPKQILWR	1.11 ± 0.63
QSSSLHKHSFTHVVSQNEGG	0.543 ± 0.26
QTFMHSCEFRVN	-0.347 ± 0.66
QTWLTLDQFVLTFGHKDNLG	0.853 ± 0.51
QVFGFYTMEKVYHVGGIASV	-0.296 ± 0.3
QVGPVREHEHKVLAGLSMDW	0.498 ± 0.38
QVLVYNDFRYFEFHRDVFLR	8.45 ± 0.073
QVNFNRRFNTQAIFNLSGVP	0.947 ± 0.71
QVRLVNWVCRM	3.71 ± 0.059
QVTNRMRLRLMYR	0.699 ± 0.37
QWKGSFSSV	-0.873 ± 1.1
QWSDS	-0.267 ± 0.41
QYAIFRLSKTWIIHSMDKNA	0.269 ± 0.21
QYLFSGLEEMPIVTVLS	-0.393 ± 0.31
QYSHDRRFLPGMVHVRLFLE	0.662 ± 0.38
QYYFARIREFLSIQFIAWYC	0.172 ± 0.32
RACFRVIYWFSLLDKVGETV	-0.427 ± 1.1
RAISVLPIMSVRAH	0.085 ± 0.25
RALFSIHNTAEGLSERWAAL	0.58 ± 1.2
RAQYYYICRWRYYTWPVPR	-0.515 ± 1
RARDIKWGCLFVCLTCMSTG	3.76 ± 0.067
RARGAIYTVT	-0.894 ± 2.4
RAVGSDWGKVVFLLMNSEES	0.212 ± 0.31
RCASHKTQYKRCGGVDEQEA	1.96 ± 0.58
RCCIIDLFS	4.87 ± 0.066

Substance	amyloid nucleation score
RCDRTGQRRALDRGSCFLVE	-0.46 ± 1.1
RCDSMSCTVYCEGNS	-1.03 ± 1.5
RCKELDCSPDSGITVTRSLI	1.12 ± 0.63
RCNDAFTFTCRPGWMWKWGK	1.75 ± 0.18
RCNSSSIEWTVCILFDLLFY	-0.122 ± 1
RCSGYRFRFTVRRTSLCFVK	-0.447 ± 1.2
RCVKASLYDGEYMKLMDGVM	-0.407 ± 0.45
RDAEWTMIIIIARNQMKAFS	-0.162 ± 0.4
RDAFYRGRTRFNQRRYMYRR	-0.335 ± 0.53
RDASRVVCMRPRWGPFQVVV	0.222 ± 0.69
RDCWQ	-0.571 ± 0.3
RDIRWITQEADGYLELRHSF	-0.085 ± 0.73
RDLDSSILNNFFDICTFWNK	-0.305 ± 0.5
RDLTKSDLMSVNAYMVIYRW	0.382 ± 0.31
RDMRLLAFRLPIRRFTRGST	-0.097 ± 0.44
RDNKVPVR	-0.537 ± 1.9
RDPVLDVGLRCMWHNGGPFG	-0.035 ± 1.4
RDWTRGHACRYCSWQWVARG	0.529 ± 0.88
REDAYR	-0.429 ± 0.91
REGLTFPRVLPIWHLFVSSD	-0.139 ± 0.32
